B1: QP201202 (antibody, V domains shown)
VH: EVQLQQSGPELVKPGASVKMSCKASGYTFTNYFVHWVKQKPGQGLEWIGYINPYNDDTKYNEKFKGKATLTSDKSSSTAYMDLSSLTSEDSAVYYCLSLRFFAYWGQGTLVTVSA
VL: DIVMTQSPSSLTVTAGEKVTMSCKSSQSLLNSGNQKNYLTWYQQKPGQAPKLLIYWASTRESGVPDRFIGSGSGTDFTLTISHVQAEDLAVYFCQNDYSYPLTFGAGTNLELK
B2: QP14431442 (antibody, V domains shown)
VH: QVQLVQSGAEVKKPGASVKVSCKASGYAFSSYWMNWVRQAPGQGLEWMGQIYPGNGDTTYNGKFKGRVTMTRDTSTSTVYMELSSLRSEDTAVYYCARFVKGNAMDYWGQGTLVTVSS
VL: DIVMTQSPDSLAVSLGERATISCKSSQSLLNSGNQKNYLTWYQQKPGQPPKMLIYWASTRESGVPDRFSGSGSGIDFTLTISSVQAEDVAVYYCQNAYSYPFTFGQGTKLEIK
B3: QP14571453 (antibody, V domains shown)
VH: QVQLVQSGAEVKKPGASVKVSCKASGYTFTNYFVHWVRQAPGQGLEWIGYINPYNDDTKYNEKFKGRVTLTRDTSTSTVYMELSSLRSEDTAVYYCLSLRFFAYWGQGTLVTVSS
VL: DIVMTQSPDSLAVSLGERATISCKSSQSLLNSGNQKNYLTWYQQKPGQAPKLLIYWASTRESGVPDRFSGSGSGTDFTLTISSLQAEDVAVYYCQNDYSYPLTFGGGTKVEIK
B4: QP14431441 (antibody, V domains shown)
VH: QVQLVQSGAEVKKPGASVKVSCKASGYAFSSYWMNWVRQAPGQGLEWMGQIYPGNGDTTYNGKFKGRVTMTRDTSTSTVYMELSSLRSEDTAVYYCARFVKGNAMDYWGQGTLVTVSS
VL: DIVMTQSPDSLAVSLGERATISCKSSQSLLNSGNQKNYLTWYQQKPGQPPKLLIYWASTRESGVPDRFSGSGSGIDFTLTISSVQAEDVAVYYCQNAYSYPFTFGQGTKLEIK
B5: QP14571454 (antibody, V domains shown)
VH: QVQLVQSGAEVKKPGASVKVSCKASGYTFTNYFVHWVRQAPGQGLEWIGYINPYNDDTKYNEKFKGRVTLTRDTSTSTVYMELSSLRSEDTAVYYCLSLRFFAYWGQGTLVTVSS
VL: DIVMTQSPDSLAVSLGERATISCKSSQSLLNSGNQKNYLTWYQQKPGQAPKLLIYWASTRESGVPDRFSGSGSGTDFTLTISSVQAEDVAVYFCQNDYSYPLTFGGGTKVEIK
B6: QP14451441 (antibody, V domains shown)
VH: QVQLVQSGAEVKKPGASVKVSCKASGYAFSSYWMNWVRQAPGQGLEWIGQIYPGNGDTTYNGKFKGRVTMTADKSTSTVYMELSSLRSEDTAVYFCARFVKGNAMDYWGQGTLVTVSS
VL: DIVMTQSPDSLAVSLGERATISCKSSQSLLNSGNQKNYLTWYQQKPGQPPKLLIYWASTRESGVPDRFSGSGSGIDFTLTISSVQAEDVAVYYCQNAYSYPFTFGQGTKLEIK
B7: QP14561455 (antibody, V domains shown)
VH: QVQLVQSGAEVKKPGASVKVSCKASGYTFTNYFVHWVRQAPGQGLEWMGYINPYNDDTKYNEKFKGRVTMTRDTSTSTVYMELSSLRSEDTAVYYCLSLRFFAYWGQGTLVTVSS
VL: DIVMTQSPDSLAVSLGERATISCKSSQSLLNSGNQKNYLTWYQQKPGQAPKLLIYWASTRESGVPDRFIGSGSGTDFTLTISSVQAEDVAVYFCQNDYSYPLTFGGGTKVEIK
B8: QP14441440 (antibody, V domains shown)
VH: QVQLVQSGAEVKKPGASVKVSCKASGYAFSSYWMNWVRQAPGQGLEWIGQIYPGNGDTTYNGKFKGRVTMTADKSTSTVYMELSSLRSEDTAVYYCARFVKGNAMDYWGQGTLVTVSS
VL: DIVMTQSPDSLAVSLGERATISCKSSQSLLNSGNQKNYLTWYQQKPGQPPKLLIYWASTRESGVPDRFSGSGSGTDFTLTISSLQAEDVAVYYCQNAYSYPFTFGQGTKLEIK
B9: QP14561453 (antibody, V domains shown)
VH: QVQLVQSGAEVKKPGASVKVSCKASGYTFTNYFVHWVRQAPGQGLEWMGYINPYNDDTKYNEKFKGRVTMTRDTSTSTVYMELSSLRSEDTAVYYCLSLRFFAYWGQGTLVTVSS
VL: DIVMTQSPDSLAVSLGERATISCKSSQSLLNSGNQKNYLTWYQQKPGQAPKLLIYWASTRESGVPDRFSGSGSGTDFTLTISSLQAEDVAVYYCQNDYSYPLTFGGGTKVEIK
B10: QP14571455 (antibody, V domains shown)
VH: QVQLVQSGAEVKKPGASVKVSCKASGYTFTNYFVHWVRQAPGQGLEWIGYINPYNDDTKYNEKFKGRVTLTRDTSTSTVYMELSSLRSEDTAVYYCLSLRFFAYWGQGTLVTVSS
VL: DIVMTQSPDSLAVSLGERATISCKSSQSLLNSGNQKNYLTWYQQKPGQAPKLLIYWASTRESGVPDRFIGSGSGTDFTLTISSVQAEDVAVYFCQNDYSYPLTFGGGTKVEIK
B11: QP14441439 (antibody, V domains shown)
VH: QVQLVQSGAEVKKPGASVKVSCKASGYAFSSYWMNWVRQAPGQGLEWIGQIYPGNGDTTYNGKFKGRVTMTADKSTSTVYMELSSLRSEDTAVYYCARFVKGNAMDYWGQGTLVTVSS
VL: DIVMTQSPDSLAVSLGERATINCKSSQSLLNSGNQKNYLTWYQQKPGQPPKLLIYWASTRESGVPDRFSGSGSGTDFTLTISSLQAEDVAVYYCQNAYSYPFTFGQGTKLEIK
B12: QP14561452 (antibody, V domains shown)
VH: QVQLVQSGAEVKKPGASVKVSCKASGYTFTNYFVHWVRQAPGQGLEWMGYINPYNDDTKYNEKFKGRVTMTRDTSTSTVYMELSSLRSEDTAVYYCLSLRFFAYWGQGTLVTVSS
VL: DIVMTQSPDSLAVSLGERATINCKSSQSLLNSGNQKNYLTWYQQKPGQPPKLLIYWASTRESGVPDRFSGSGSGTDFTLTISSLQAEDVAVYYCQNDYSYPLTFGGGTKVEIK
B13: QP14581452 (antibody, V domains shown)
VH: QVQLVQSGAEVKKPGASVKVSCKASGYTFTNYFVHWVKQAPGQGLEWIGYINPYNDDTKYNEKFKGKATLTRDTSTSTVYMELSSLRSEDTAVYYCLSLRFFAYWGQGTLVTVSS
VL: DIVMTQSPDSLAVSLGERATINCKSSQSLLNSGNQKNYLTWYQQKPGQPPKLLIYWASTRESGVPDRFSGSGSGTDFTLTISSLQAEDVAVYYCQNDYSYPLTFGGGTKVEIK
B14: QP14441442 (antibody, V domains shown)
VH: QVQLVQSGAEVKKPGASVKVSCKASGYAFSSYWMNWVRQAPGQGLEWIGQIYPGNGDTTYNGKFKGRVTMTADKSTSTVYMELSSLRSEDTAVYYCARFVKGNAMDYWGQGTLVTVSS
VL: DIVMTQSPDSLAVSLGERATISCKSSQSLLNSGNQKNYLTWYQQKPGQPPKMLIYWASTRESGVPDRFSGSGSGIDFTLTISSVQAEDVAVYYCQNAYSYPFTFGQGTKLEIK
B15: QP14571452 (antibody, V domains shown)
VH: QVQLVQSGAEVKKPGASVKVSCKASGYTFTNYFVHWVRQAPGQGLEWIGYINPYNDDTKYNEKFKGRVTLTRDTSTSTVYMELSSLRSEDTAVYYCLSLRFFAYWGQGTLVTVSS
VL: DIVMTQSPDSLAVSLGERATINCKSSQSLLNSGNQKNYLTWYQQKPGQPPKLLIYWASTRESGVPDRFSGSGSGTDFTLTISSLQAEDVAVYYCQNDYSYPLTFGGGTKVEIK
B16: QP14581453 (antibody, V domains shown)
VH: QVQLVQSGAEVKKPGASVKVSCKASGYTFTNYFVHWVKQAPGQGLEWIGYINPYNDDTKYNEKFKGKATLTRDTSTSTVYMELSSLRSEDTAVYYCLSLRFFAYWGQGTLVTVSS
VL: DIVMTQSPDSLAVSLGERATISCKSSQSLLNSGNQKNYLTWYQQKPGQAPKLLIYWASTRESGVPDRFSGSGSGTDFTLTISSLQAEDVAVYYCQNDYSYPLTFGGGTKVEIKR
B17: QP14581454 (antibody, V domains shown)
VH: QVQLVQSGAEVKKPGASVKVSCKASGYTFTNYFVHWVKQAPGQGLEWIGYINPYNDDTKYNEKFKGKATLTRDTSTSTVYMELSSLRSEDTAVYYCLSLRFFAYWGQGTLVTVSS
VL: DIVMTQSPDSLAVSLGERATISCKSSQSLLNSGNQKNYLTWYQQKPGQAPKLLIYWASTRESGVPDRFSGSGSGTDFTLTISSVQAEDVAVYFCQNDYSYPLTFGGGTKVEIKR
B18: QP14561454 (antibody, V domains shown)
VH: QVQLVQSGAEVKKPGASVKVSCKASGYTFTNYFVHWVRQAPGQGLEWMGYINPYNDDTKYNEKFKGRVTMTRDTSTSTVYMELSSLRSEDTAVYYCLSLRFFAYWGQGTLVTVSS
VL: DIVMTQSPDSLAVSLGERATISCKSSQSLLNSGNQKNYLTWYQQKPGQAPKLLIYWASTRESGVPDRFSGSGSGTDFTLTISSVQAEDVAVYFCQNDYSYPLTFGGGTKVEIKR
B19: QP199200 (antibody, V domains shown)
VH: DVQLVESGGGLVQPGGSRKLSCAASGFTFSSFGMHWVRQAPEKGLEWVAYISSGSNSIYYVDTVKGRFTISRDNPKNTLFLQMTSLKSEDTAMYYCARNAYYGNSFDYWGQGTTLTVSS
VL: DIVMTQSPSSLTVTAGEKVTMSCKSSQSLLNSGNQKNYLTWYQQKPGQPPKLLIYWASTRESGVPDRFTGSGSGTVFTLTISSVQAEDLAVYFCQNNYYYPLTFGAGTKLELK
B20: QP14491446 (antibody, V domains shown)
VH: EVQLVESGGGLVQPGGSLRLSCAASGFTFSSFGMHWVRQAPGKGLEWVSYISSGSNSIYYVDTVKGRFTISRDNAKNSLYLQMNSLRDEDTAVYYCARNAYYGNSFDYWGQGTLVTVSS
VL: DIVMTQSPDSLAVSLGERATINCKSSQSLLNSGNQKNYLTWYQQKPGQPPKLLIYWASTRESGVPDRFSGSGSGTDFTLTISSLQAEDVAVYYCQNNYYYPLTFGGGTKVEIK
B21: QP14651462 (antibody, V domains shown)
VH: EVQLVQSGAEVKKPGASVKVSCKASGYTFTSYIMHWVRQAPGQGLEWIGYINPYNDGTKYNEKFKGRVTLTSDKSTSTVYMELSSLRSEDTAVYYCARLGFTTRNAMDYWGQGTLVTVSS
VL: DIVMTQSPDSLAVSLGERATINCKSSQSLLNSGNQKNYLAWYQQKPGQPPKLLIYGASTRESGVPDRFTGSGSGTDFTLTISSVQAEDVAVYYCQNDHSYPFTFGQGTKLEIK

The first assay has as its target T1, Claudin 18.2 (CLDN18.2), expressed on CHOS-CLDN 18.2 / HEK293-CLDN 18.2 / HCC827-CLDN 18.2 cells (human, UniProt P56856 1-261). The assay can be described thus: cell ELISA.
B1 displayed an EC50 of 0.944 µg/mL.
Take B2: the response was half-maximal at 0.132 µg/mL (EC50).
On to B3, for which the midpoint of the response, the EC50, lay at 0.796 µg/mL.
The molecule B4 gave an EC50 of 0.159 µg/mL.
Molecule B5 had an EC50 of 0.357 µg/mL.
Regarding B6, the midpoint of the response, the EC50, lay at 0.134 µg/mL.
In turn, B7 displayed a concentration giving a half-maximal response (EC50) of 0.246 µg/mL.
Turning to B8, the 50% effective concentration (EC50) was 0.086 µg/mL.
On the same count and under the same terms, next, B9: 0.357 µg/mL.
On to B10, for which the half-maximal effective concentration (EC50) came to 0.265 µg/mL.
The same measure, in the same setting: next, B11: 0.109 µg/mL; B12: 0.389 µg/mL.
B13 registered a 50% effective concentration (EC50) of 0.279 µg/mL.
B14 gave a concentration for a half-maximal effect (EC50) of 0.243 µg/mL.
B15 showed an EC50 of 0.242 µg/mL.
On to B16, for which a half-maximal response (EC50) required 0.187 µg/mL.
On the same count and under the same terms, next, B17: 0.21 µg/mL; B18: 0.213 µg/mL.

Another assay has as its target T1, Claudin 18.2 (CLDN18.2), expressed on …. The experiment in a line: cell ELISA. This is another data set of the same source.
In turn, B19 returned a 50% effective concentration (EC50) of 0.243 µg/mL.
B20: the EC50 stood at 0.158 µg/mL.
Molecule B21 had an EC50 of 0.119 µg/mL.

For the origin of these results see patent US20230183352A1 (published 2023).
